Experiments:
[1] = biological target: GST-syntaxin 1A H3 domain construct Syn 1A16 (amino acids 191-266) (Schistosoma japonicum; rat); experiment: 20S complex on GST-Syn 1A16 beads, ATP and Mg++, Western blot densitometry
[2] = biological target: GST-syntaxin 1A cytoplasmic domain fusion protein (Syn 1A11, amino acids 4-266), immobilized on glutathione agarose beads (Schistosoma japonicum; rat); experiment: 20S complex assembly on GST-syntaxin beads with SNAP-25, VAMP, α-SNAP and NSF added together, ATPγS, 25° C., Western blot densitometry, FIG. 6A
[3] = biological target: GST-syntaxin 1A deletion mutant Syn 1A6 (amino acids 4-190) (Schistosoma japonicum; rat); experiment: GST-syntaxin deletion mutant on glutathione beads, soluble ligand, Western blot densitometry; FIG. 4C row 3 from top, row label only in the figure (assigned by Table 1 order and paragraph 328)
[4] = biological target: GST-syntaxin 1A cytoplasmic domain fusion protein (Syn 1A11, amino acids 4-266), immobilized on glutathione agarose beads (Schistosoma japonicum; rat); experiment: 20S complex assembly on GST-syntaxin beads with SNAP-25, VAMP, α-SNAP and NSF added together, ATP, 25° C., Western blot densitometry, FIG. 6A
[5] = biological target: GST-syntaxin 1A H3 domain construct Syn 1A16 (amino acids 191-266) (Schistosoma japonicum; rat); experiment: 20S complex assembly on GST-syntaxin beads with all four proteins together, ATPγS, 18° C. overnight MgCl2, Western blot densitometry, FIG. 6B
[6] = biological target: GST-syntaxin 1A deletion mutant Syn 1A17 (amino acids 4-240) (Schistosoma japonicum; rat); experiment: as above
[7] = biological target: GST-syntaxin 1A deletion mutant Syn 1A13 (amino acids 4-221) (Schistosoma japonicum; rat); experiment: as above
[8] = biological target: GST-syntaxin 1A deletion mutant Syn 1A6 (amino acids 4-190) (Schistosoma japonicum; rat); experiment: as above
[9] = biological target: GST-syntaxin 1A cytoplasmic domain fusion protein (Syn 1A11, amino acids 4-266), immobilized on glutathione agarose beads (Schistosoma japonicum; rat); experiment: as above
[10] = biological target: GST-syntaxin 1A deletion mutant Syn 1A17 (amino acids 4-240) (Schistosoma japonicum; rat); experiment: 20S complex on GST-Syn 1A17 beads, ATP and Mg++, Western blot densitometry
[11] = biological target: GST-syntaxin 1A deletion mutant Syn 1A4 (amino acids 8-76) (Schistosoma japonicum; rat); experiment: GST-syntaxin deletion mutant on glutathione beads, soluble ligand, Western blot densitometry; FIG. 4C row 1 from top, row label only in the figure (assigned by Table 1 order and paragraph 328)
[12] = biological target: GST-syntaxin 1A deletion mutant Syn 1A13 (amino acids 4-221) (Schistosoma japonicum; rat); experiment: GST-syntaxin deletion mutant on glutathione beads, soluble ligand, Western blot densitometry; FIG. 4C row 4 from top, row label only in the figure (assigned by Table 1 order and paragraph 328)
[13] = biological target: GST-syntaxin 1A cytoplasmic domain fusion protein (Syn 1A11, amino acids 4-266), immobilized on glutathione agarose beads (Schistosoma japonicum; rat); experiment: GST-syntaxin 1A (wild type) on glutathione beads, soluble ligand, Western blot densitometry, FIG. 5B
[14] = biological target: GST-syntaxin 1A cytoplasmic domain fusion protein (Syn 1A11, amino acids 4-266), immobilized on glutathione agarose beads (Schistosoma japonicum; rat); experiment: GST-syntaxin deletion mutant on glutathione beads, soluble ligand, Western blot densitometry; FIG. 4C row 6 from top, row label only in the figure (assigned by Table 1 order and paragraph 328)
[15] = biological target: GST-syntaxin 1A (Syn1A11) point mutant M1: R198A, I202A (Schistosoma japonicum; rat); experiment: GST-syntaxin point mutant on glutathione beads, soluble ligand, Western blot densitometry, FIG. 5B
[16] = biological target: GST-syntaxin 1A (Syn1A11) point mutant M6: A240V, V244A (Schistosoma japonicum; rat); experiment: as above
[17] = biological target: GST-syntaxin 1A (Syn1A11) point mutant M2: L205A, I209A (Schistosoma japonicum; rat); experiment: as above
[18] = biological target: GST-syntaxin 1A (Syn1A11) point mutant 34 (Schistosoma japonicum; rat); experiment: as above
[19] = biological target: GST-syntaxin 1A (Syn1A11) point mutant 12 (four point mutations) (Schistosoma japonicum; rat); experiment: as above
[20] = biological target: GST-syntaxin 1A (Syn1A11) point mutant M3: L212A, F216A (Schistosoma japonicum; rat); experiment: as above
[21] = biological target: GST-syntaxin 1A (Syn1A11) point mutant M5: I230A, I233A (Schistosoma japonicum; rat); experiment: as above
[22] = biological target: GST-syntaxin 1A (Syn1A11) point mutant 45 (Schistosoma japonicum; rat); experiment: as above
[23] = biological target: GST-syntaxin 1A (Syn1A11) point mutant M4: V223A, Q226A (Schistosoma japonicum; rat); experiment: as above
[24] = biological target: GST-syntaxin 1A (Syn1A11) point mutant 13 (four point mutations) (Schistosoma japonicum; rat); experiment: as above
[25] = biological target: GST-syntaxin 1A deletion mutant Syn 1A17 (amino acids 4-240) (Schistosoma japonicum; rat); experiment: GST-syntaxin deletion mutant on glutathione beads, soluble ligand, Western blot densitometry; FIG. 4C row 5 from top, row label only in the figure (assigned by Table 1 order and paragraph 328)

Chain of SNAP-25 (synaptosomal-associated protein of 25 kDa), soluble recombinant (chain): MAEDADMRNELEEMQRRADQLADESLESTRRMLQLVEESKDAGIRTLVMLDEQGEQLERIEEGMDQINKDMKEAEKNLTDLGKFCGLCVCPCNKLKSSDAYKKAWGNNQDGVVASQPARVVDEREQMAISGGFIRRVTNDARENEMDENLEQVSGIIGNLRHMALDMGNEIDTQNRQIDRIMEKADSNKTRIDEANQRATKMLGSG
Chain of His-tagged α-SNAP (soluble NSF attachment protein), soluble recombinant (P81125 whole entry): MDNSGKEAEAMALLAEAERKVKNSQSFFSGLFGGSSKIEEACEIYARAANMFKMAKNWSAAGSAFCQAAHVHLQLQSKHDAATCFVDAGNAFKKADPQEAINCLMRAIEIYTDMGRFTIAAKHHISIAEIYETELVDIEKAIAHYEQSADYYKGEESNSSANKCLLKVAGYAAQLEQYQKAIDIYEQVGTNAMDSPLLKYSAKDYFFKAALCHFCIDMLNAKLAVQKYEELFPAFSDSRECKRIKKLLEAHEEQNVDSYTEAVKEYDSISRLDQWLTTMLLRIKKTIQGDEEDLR

percent dissociated in the presence of ATP and Mg++ [1] [%] | densitometry pixel value [2] [pixel value] | densitometry pixel value [3] [pixel value] | densitometry pixel value [4] [pixel value] | densitometry pixel value [5] [pixel value] | densitometry pixel value [6] [pixel value] | densitometry pixel value [7] [pixel value] | densitometry pixel value [8] [pixel value] | densitometry pixel value [9] [pixel value] | percent dissociated in the presence of ATP and Mg++ [10] [%] | densitometry pixel value [11] [pixel value] | densitometry pixel value [12] [pixel value] | densitometry pixel value [13] [pixel value] | densitometry pixel value [14] [pixel value] | densitometry pixel value [15] [pixel value] | densitometry pixel value [16] [pixel value] | densitometry pixel value [17] [pixel value] | densitometry pixel value [18] [pixel value] | densitometry pixel value [19] [pixel value] | densitometry pixel value [20] [pixel value] | Substance | also measured
0 | 1490 | 0 | 132 | 1420 | 1070 | 0 | 0 | 1040 | 25 | 0 | 0 | 414 | 1670 | 53 | 633 | 36 | 10 | 23 | 23 | His-tagged α-SNAP (soluble NSF attachment protein), soluble recombinant (from UniProt P81125) | densitometry pixel value [21]: 25 pixel value; densitometry pixel value [22]: 7 pixel value; densitometry pixel value [23]: 43 pixel value; densitometry pixel value [24]: 15 pixel value; densitometry pixel value [25]: 1660 pixel value
5 | 839 | 9 | 768 | 504 | 415 | 1340 | 0 | 85 | 0 | 19 | 417 | 555 | 797 | 586 | 875 | 672 | 712 | 361 | 866 | SNAP-25 (synaptosomal-associated protein of 25 kDa), soluble recombinant | densitometry pixel value [21]: 824 pixel value; densitometry pixel value [22]: 640 pixel value; densitometry pixel value [23]: 754 pixel value; densitometry pixel value [24]: 143 pixel value; densitometry pixel value [25]: 623 pixel value
0 | 528 | 0 | 32 | 944 | 812 | 1310 | 0 | 691 | 0 | 0 | 0 | 2610 | 286 | 37 | 0 | 17 | 0 | 0 | 0 | VAMP (vesicle-associated membrane protein; VAMP 2), soluble recombinant | densitometry pixel value [21]: 0 pixel value; densitometry pixel value [22]: 0 pixel value; densitometry pixel value [23]: 0 pixel value; densitometry pixel value [24]: 0 pixel value; densitometry pixel value [25]: 0 pixel value
